Test results reported in patent EP4671273A1 (Anaveon AG, dated 2025).

Tests used:
[1] = molecular target: recombinant human IL-21 (rhIL-21) (human, UniProt Q9HBE4 30-162, limits assumed); experiment: cell-based or functional assay
[2] = molecular target: T1, cynomolgus PD-1 (#PD1-C52H5, AcroBiosystems) (cynomolgus monkey, UniProt B0LAJ3 25-170); experiment: SPR, PD-1 on captured IgG1
T1 construct: bought; also called cynomolgus monkey PD-1; not shown: the vendor's tag on the recombinant protein (AcroBiosystems #PD1-C52H5)
T1 sequence (B0LAJ3 entry or part of it limits assumed, form in doubt): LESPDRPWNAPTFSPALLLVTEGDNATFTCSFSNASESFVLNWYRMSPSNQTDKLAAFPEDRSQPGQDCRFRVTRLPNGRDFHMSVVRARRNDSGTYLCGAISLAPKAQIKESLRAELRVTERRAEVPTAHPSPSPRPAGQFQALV

[3] = molecular target: T2, human PD-1 (#PD1-H82E4, AcroBiosystems) (human, UniProt Q15116 25-167); experiment: SPR, PD-1 on captured IgG1
T2 construct: bought
T2 sequence (Q15116 25-167 limits assumed): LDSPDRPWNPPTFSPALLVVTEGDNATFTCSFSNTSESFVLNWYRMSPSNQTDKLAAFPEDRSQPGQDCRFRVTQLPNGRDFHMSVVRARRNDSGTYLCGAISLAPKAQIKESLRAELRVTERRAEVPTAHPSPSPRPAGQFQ

recombinant human IL-21 (rhIL-21), sequence (Q9HBE4 30-162 limits assumed): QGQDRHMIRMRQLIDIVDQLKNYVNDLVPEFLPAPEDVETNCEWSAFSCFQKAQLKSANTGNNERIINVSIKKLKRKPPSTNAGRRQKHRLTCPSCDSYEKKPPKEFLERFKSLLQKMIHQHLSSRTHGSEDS

Binder	% pSTAT3+ Jurkat cells, 0.1 nM rhIL-21 + 0 nM antibody [1] [%]	% pSTAT3+ Jurkat cells, 0.1 nM rhIL-21 + 0.1012 nM antibody [1] [%]	% pSTAT3+ Jurkat cells, 0.1 nM rhIL-21 + 0.1602 nM antibody [1] [%]	% pSTAT3+ Jurkat cells, 0.1 nM rhIL-21 + 0.2536 nM antibody [1] [%]	% pSTAT3+ Jurkat cells, 0.1 nM rhIL-21 + 0.4015 nM antibody [1] [%]	% pSTAT3+ Jurkat cells, 0.1 nM rhIL-21 + 0.6355 nM antibody [1] [%]	% pSTAT3+ Jurkat cells, 0.1 nM rhIL-21 + 1.006 nM antibody [1] [%]	% pSTAT3+ Jurkat cells, 0.1 nM rhIL-21 + 1.5925 nM antibody [1] [%]	% pSTAT3+ Jurkat cells, 0.1 nM rhIL-21 + 2.5209 nM antibody [1] [%]	% pSTAT3+ Jurkat cells, 0.1 nM rhIL-21 + 3.9906 nM antibody [1] [%]	% pSTAT3+ Jurkat cells, 0.1 nM rhIL-21 + 6.3171 nM antibody [1] [%]	% pSTAT3+ Jurkat cells, 0.1 nM rhIL-21 + 10 nM antibody [1] [%]	Kd [2] [nM]	koff [2] [s⁻¹]	kon [2] [M⁻¹ s⁻¹]	Kd [3] [nM]	koff [3] [s⁻¹]	kon [3] [M⁻¹ s⁻¹]
MIZ926 (antibody, human IgG1, V domains shown) VH: EVQLVESGGGSVKPGGSLKLSCAASGLTFSHYYMYWVRQTPEKRLEWVAIISDGGDYTHYSDSVKGRFTISRDNAKNNLYLQMSSLQSEDTAMYYCAGDYGYGYEGWFAYWGQGTLVTVST VL: DIVMTQSQKFMSTSVGDRVSVTCKASQNVDTYVAWYQQKPGQSPKALIYSTSYRYSGVPDRFTGSGSGTDFTLTISNVQSEDLAEYFCQQYNSYPWTFGGGTKLEIK	82.5	75.1	72.4	70.7	69.9	68.5	65.3	64.8	64.5	61.8	57.5	57.5						
LKK631 (antibody, human IgG1, V domains shown) VH: EVQLQQFGAEVVKPGASVKMSCKASGYTFTDYNMNWVKQSHEKSLEWIGDIHPKFHSTNYNQKFKGKATLTIDTSSSTAYMELRNLTSEDTAVYYCARVGNYVYFVMDYWGQGTSVTVSS VL: SIVMTQTPKFLLVSAGDRVTITCKASQSVSNDVAWYQQKPGQSPKLLIYYASNRYTGVPDRFSGSGYGTDFTFTISTVQAEDLAVYFCQQDYTSPWTFGGGTKLEIK	82.1	81	72.4	71.4	71.5	65.6	69.5	58.7	55.1	42	44.5	41.1						
XVT458-z2-m6 (antibody, human IgG1, V domains shown, human IgG1; also called anti-PD-1 antibody clone XVT458-z2-m6) VH: VQLVQSGAEVKKPGASVKVSCKASGYTFTNFYIHWVRQAPGQGLEWMGSIYPNYGITAYNQKFKDRVTMTVDTSTSTAYMELRSLRSDDTAVYYCARGYSYAMDYWGQGTTVTVSS VL: DIQMTQSPSSVSASVGDRVTITCSASQGISGDLNWYQQKPGKAPKLLIYHTSQLHSDVPSRFSGSGSGTDFTLTISSLQPEDFATYYCQGYSKDLLTFGGGTKLEIK													0.306	0.000153	499000	0.522	0.000174	333000
ACH836 (antibody, human IgG1, V domains shown, human IgG1) VH: VQLVQSGAEVKKPGASVKVSCKASGYTFTNFYIHWVRQAPGQGLEWMGSIYPNYGITAYNQKFKDRVTMTVDTSTSTAYMELRSLRSDDTAVYYCARGYSYAMDYWGQGTTVTVSS VL: DIQMTQSPSSVSASVGDRVTITCSASQGASGDLNWYQQKPGKAPKLLIYHTSQLHSDVPSRFSGSGSGTDFTLTISSLQPEDFATYYCQGYSKDLLTFGGGTKLEIK													0.205	0.000101	493000	0.342	0.000117	344000
ICW519 (antibody, human IgG1, V domains shown, human IgG1) VH: VQLVQSGAEVKKPGASVKVSCKASGYTFTNFYIHWVRQAPGQGLEWMGSIYPNYGITAYNQKFQDRVTMTVDTSTSTAYMELRSLRSDDTAVYYCARGYSYAMDYWGQGTTVTVSS VL: DIQMTQSPSSVSASVGDRVTITCSASQGISGDLNWYQQKPGKAPKLLIYHTSQLHSDVPSRFSGSGSGTDFTLTISSLQPEDFATYYCQGYSKDLLTFGGGTKLEIK													0.296	0.000176	592000	0.511	0.000187	365000
OKM590 (antibody, human IgG1, V domains shown, human IgG1) VH: VQLVQSGAEVKKPGASVKVSCKASGYTFTNFYIHWVRQAPGQGLEWMGSIYPNYGITAYNQKFKDRVTMTVDTSTSTAYMELRSLRSDDTAVYYCARGYSYAMDVWGQGTTVTVSS VL: DIQMTQSPSSVSASVGDRVTITCSASQGISGDLNWYQQKPGKAPKLLIYHTSQLHSDVPSRFSGSGSGTDFTLTISSLQPEDFATYYCQGYSKDLLTFGGGTKLEIK													0.627	0.000345	551000	0.955	0.00039	409000
BBJ602 (antibody, human IgG1, V domains shown, human IgG1) VH: VQLVQSGAEVKKPGASVKVSCKASGYTFTNFYIHWVRQAPGQGLEWMGSIYPNYGITAYNQKFKDRVTMTVDTSTSTAYMELRSLRSDDTAVYYCARGYSYGMDYWGQGTTVTVSS VL: DIQMTQSPSSVSASVGDRVTITCSASQGISGDLNWYQQKPGKAPKLLIYHTSQLHSDVPSRFSGSGSGTDFTLTISSLQPEDFATYYCQGYSKDLLTFGGGTKLEIK													8.53	3.15	3.69e+08	18.1	0.0278	1.54e+06
JPK663 (antibody, human IgG1, V domains shown, human IgG1) VH: VQLVQSGAEVKKPGASVKVSCKASGYTFTNFYIHWVRQAPGQGLEWMGSIYPNYGITAYNQKFKDRVTMTVDTSTSTAYMELRSLRSDDTAVYYCARGYSYAMDYWGQGTTVTVSS VL: DIQMTQSPSSVSASVGDRVTATCSASQGISGDLNWYQQKPGKAPKLLIYHTSQLHSDVPSRFSGSGSGTDFTLTISSLQPEDFATYYCQGYSKDLLTFGGGTKLEIK													0.246	0.000124	504000	0.429	0.000144	336000
QGA408 (antibody, human IgG1, V domains shown, human IgG1) VH: VQLVQSGAEVKKPGASVKVSCKASGYTFTNFYIHWVRQAPGQGLEWMGSIYPNYGITAFNQKFKDRVTMTVDTSTSTAYMELRSLRSDDTAVYYCARGYSYAMDYWGQGTTVTVSS VL: DIQMTQSPSSVSASVGDRVTITCSASQGISGDLNWYQQKPGKAPKLLIYHTSQLHSDVPSRFSGSGSGTDFTLTISSLQPEDFATYYCQGYSKDLLTFGGGTKLEIK													0.328	0.000182	555000	0.48	0.000208	434000
PEV057 (antibody, human IgG1, V domains shown, human IgG1) VH: VQLVQSGAEVKKPGASVKVSCKASGYTFTNFYIHWVRQAPGQGLEWMGSIYPNYGITAYNQKFKDRVTMTVDTSTSTAYMELRSLRSDDTATYYCARGYSYAMDYWGQGTTVTVSS VL: DIQMTQSPSSVSASVGDRVTITCSASQGISGDLNWYQQKPGKAPKLLIYHTSQLHSDVPSRFSGSGSGTDFTLTISSLQPEDFATYYCQGYSKDLLTFGGGTKLEIK													0.327	0.00016	489000	0.521	0.000189	363000
NRT742 (antibody, human IgG1, V domains shown, human IgG1) VH: VQLVQSGAEVKKPGASVKVSCKASGYTFTNFYIHWVRQAPGQGLEWMGSIYPNYGITAYNQKFKDRVTMTVDTSTSTAYMELRSLRSDDTAVYYCARGYSYAMDYWGQGTTVTVSS VL: DIQMTQSPSSVSASVGDRVTITCSASQGISGDLNWYQQKPGKAPKLLIYHASQLHSDVPSRFSGSGSGTDFTLTISSLQPEDFATYYCQGYSKDLLTFGGGTKLEIK													0.541	0.000297	549000	0.955	0.000406	426000
DKR699 (antibody, human IgG1, V domains shown, human IgG1) VH: VQLVQSGAEVKKPGASVKVSCKASGYTFTNFYIHWVRQAPGQGLEWMGSIYPNYGDTAYNQKFKDRVTMTVDTSTSTAYMELRSLRSDDTAVYYCARGYSYAMDYWGQGTTVTVSS VL: DIQMTQSPSSVSASVGDRVTITCSASQGISGDLNWYQQKPGKAPKLLIYHTSQLHSDVPSRFSGSGSGTDFTLTISSLQPEDFATYYCQGYSKDLLTFGGGTKLEIK													0.86	0.000203	236000	0.606	0.000121	200000
KOB135 (antibody, human IgG1, V domains shown, human IgG1) VH: VQLVQSGAEVKKPGASVKVSCKASGYTFTNFYIHWVRQAPGQGLEWMGSIYPNYGITAYNQKFKDRVTMTVDTSTSTAYMELRSLRSDDTAVYYCARGYSYAMDYWGQGTTVTVSS VL: DIQMTQSPSSVSASVGDRVTITCSASQGISGDLNWYQQKPGKAPKLLIYHTSQQHSDVPSRFSGSGSGTDFTLTISSLQPEDFATYYCQGYSKDLLTFGGGTKLEIK													0.362	0.000179	495000	0.506	0.000166	329000
